Our source for the % activity values is patent US20150064134A1.

Holding throughout (assay): cell-based or functional assay
The target in assay [1] is Met(Y1248C)(h) (human) (UniProt P08581).
The target in assay [2] is Pim-1(h) (human) (UniProt P11309).
Assay [3] concerns the target PKA(h) (human) (UniProt P17612).
Assay [4] has as its target SGK(h) (human) (UniProt O00141).
Assay [5] deals with T1, DRAK1(h) (human) (UniProt Q9UEE5).
T1 sequence (looked up): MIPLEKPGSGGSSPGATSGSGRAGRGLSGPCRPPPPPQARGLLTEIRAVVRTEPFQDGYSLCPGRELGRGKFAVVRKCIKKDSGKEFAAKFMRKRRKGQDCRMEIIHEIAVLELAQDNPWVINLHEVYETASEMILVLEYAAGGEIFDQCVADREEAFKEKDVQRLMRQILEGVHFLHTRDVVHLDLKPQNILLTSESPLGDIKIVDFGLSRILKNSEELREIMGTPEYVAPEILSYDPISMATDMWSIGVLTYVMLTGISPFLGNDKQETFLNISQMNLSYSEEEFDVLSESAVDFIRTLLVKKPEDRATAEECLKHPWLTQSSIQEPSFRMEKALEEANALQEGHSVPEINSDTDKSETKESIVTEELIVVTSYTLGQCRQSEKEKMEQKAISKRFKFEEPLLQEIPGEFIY

The target in assay [6] is T2, eEF-2K(h) (human) (UniProt O00418).
T2 sequence (looked up): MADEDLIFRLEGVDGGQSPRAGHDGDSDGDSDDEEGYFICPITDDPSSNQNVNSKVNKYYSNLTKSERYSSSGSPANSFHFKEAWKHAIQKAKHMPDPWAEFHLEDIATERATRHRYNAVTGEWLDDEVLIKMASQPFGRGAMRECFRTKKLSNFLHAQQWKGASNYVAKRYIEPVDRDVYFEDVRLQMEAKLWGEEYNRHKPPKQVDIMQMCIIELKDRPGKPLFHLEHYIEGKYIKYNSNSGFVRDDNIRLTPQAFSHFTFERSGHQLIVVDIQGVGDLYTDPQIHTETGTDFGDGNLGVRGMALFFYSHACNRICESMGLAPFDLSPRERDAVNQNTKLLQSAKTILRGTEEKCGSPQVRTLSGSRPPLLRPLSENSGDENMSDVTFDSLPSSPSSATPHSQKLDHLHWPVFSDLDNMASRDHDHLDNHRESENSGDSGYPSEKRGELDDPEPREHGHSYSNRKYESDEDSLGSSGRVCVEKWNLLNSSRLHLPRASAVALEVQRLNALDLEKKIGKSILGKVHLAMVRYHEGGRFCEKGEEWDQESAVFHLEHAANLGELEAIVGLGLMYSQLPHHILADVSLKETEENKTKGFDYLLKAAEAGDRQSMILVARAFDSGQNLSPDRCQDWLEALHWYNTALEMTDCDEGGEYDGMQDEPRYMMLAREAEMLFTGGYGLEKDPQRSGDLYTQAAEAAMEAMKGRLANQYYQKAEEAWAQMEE

For assay [7], the target named is Mnk2(h) (human) (UniProt Q9HBH9).
Assay [8] deals with MINK(h) (human) (UniProt Q8N4C8).
Assay [9] deals with Src(1-530)(h) (human) (UniProt P12931).
The target in assay [10] is IRR(h) (human) (UniProt P14616).
Sequence of IRR(h) (human) (P14616 944-1297 limits assumed): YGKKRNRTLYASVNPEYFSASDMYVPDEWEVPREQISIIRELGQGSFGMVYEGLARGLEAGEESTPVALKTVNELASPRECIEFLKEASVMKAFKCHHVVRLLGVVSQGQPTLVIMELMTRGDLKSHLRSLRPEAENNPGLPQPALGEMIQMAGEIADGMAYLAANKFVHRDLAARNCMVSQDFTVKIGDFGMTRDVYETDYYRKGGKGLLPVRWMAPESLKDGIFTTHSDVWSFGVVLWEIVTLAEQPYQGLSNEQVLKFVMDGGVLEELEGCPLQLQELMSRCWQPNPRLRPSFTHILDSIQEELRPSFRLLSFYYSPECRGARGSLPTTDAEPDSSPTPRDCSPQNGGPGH
In assay [11] the target is ROCK-II(h) (human) (UniProt O75116).
In assay [12] the target is T3, GRK7(h) (human) (UniProt Q8WTQ7).
T3 sequence (looked up): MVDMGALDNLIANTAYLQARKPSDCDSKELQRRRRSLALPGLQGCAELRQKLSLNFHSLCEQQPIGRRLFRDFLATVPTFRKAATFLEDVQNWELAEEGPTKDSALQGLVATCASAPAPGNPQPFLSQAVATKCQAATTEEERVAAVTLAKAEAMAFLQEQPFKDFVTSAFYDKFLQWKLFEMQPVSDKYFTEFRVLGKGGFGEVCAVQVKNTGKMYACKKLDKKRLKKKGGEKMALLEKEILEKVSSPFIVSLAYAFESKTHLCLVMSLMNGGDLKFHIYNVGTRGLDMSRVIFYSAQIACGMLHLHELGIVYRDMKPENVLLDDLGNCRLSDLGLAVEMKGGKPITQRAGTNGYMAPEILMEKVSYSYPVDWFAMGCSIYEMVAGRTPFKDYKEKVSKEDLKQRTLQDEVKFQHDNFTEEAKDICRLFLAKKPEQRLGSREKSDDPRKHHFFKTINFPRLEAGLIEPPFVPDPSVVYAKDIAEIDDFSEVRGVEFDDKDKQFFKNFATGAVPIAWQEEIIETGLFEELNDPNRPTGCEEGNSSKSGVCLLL

Assay [13] deals with MRCKβ(h) (human) (UniProt Q9Y5S2).
Sequence of MRCKβ(h) (human) (Q9Y5S2 1-473 limits assumed): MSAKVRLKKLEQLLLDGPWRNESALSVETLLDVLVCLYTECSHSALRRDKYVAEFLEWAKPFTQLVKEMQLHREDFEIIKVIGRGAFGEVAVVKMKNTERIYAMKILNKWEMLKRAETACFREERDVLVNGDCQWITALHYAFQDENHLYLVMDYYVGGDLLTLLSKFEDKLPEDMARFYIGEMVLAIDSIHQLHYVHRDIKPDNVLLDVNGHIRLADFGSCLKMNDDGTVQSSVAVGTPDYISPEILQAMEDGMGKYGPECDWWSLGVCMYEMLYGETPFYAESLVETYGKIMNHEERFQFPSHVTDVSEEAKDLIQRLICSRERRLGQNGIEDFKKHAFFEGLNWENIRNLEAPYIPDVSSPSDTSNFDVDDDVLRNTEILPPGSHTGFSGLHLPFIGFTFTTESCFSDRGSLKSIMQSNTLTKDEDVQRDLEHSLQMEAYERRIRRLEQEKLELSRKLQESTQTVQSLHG
Assay [14] addresses Met(h) (human) (UniProt P08581).
For assay [15], the target named is Rsk1(h) (human) (UniProt Q15418).
Sequence of Rsk1(h) (human) (Q15418 whole entry): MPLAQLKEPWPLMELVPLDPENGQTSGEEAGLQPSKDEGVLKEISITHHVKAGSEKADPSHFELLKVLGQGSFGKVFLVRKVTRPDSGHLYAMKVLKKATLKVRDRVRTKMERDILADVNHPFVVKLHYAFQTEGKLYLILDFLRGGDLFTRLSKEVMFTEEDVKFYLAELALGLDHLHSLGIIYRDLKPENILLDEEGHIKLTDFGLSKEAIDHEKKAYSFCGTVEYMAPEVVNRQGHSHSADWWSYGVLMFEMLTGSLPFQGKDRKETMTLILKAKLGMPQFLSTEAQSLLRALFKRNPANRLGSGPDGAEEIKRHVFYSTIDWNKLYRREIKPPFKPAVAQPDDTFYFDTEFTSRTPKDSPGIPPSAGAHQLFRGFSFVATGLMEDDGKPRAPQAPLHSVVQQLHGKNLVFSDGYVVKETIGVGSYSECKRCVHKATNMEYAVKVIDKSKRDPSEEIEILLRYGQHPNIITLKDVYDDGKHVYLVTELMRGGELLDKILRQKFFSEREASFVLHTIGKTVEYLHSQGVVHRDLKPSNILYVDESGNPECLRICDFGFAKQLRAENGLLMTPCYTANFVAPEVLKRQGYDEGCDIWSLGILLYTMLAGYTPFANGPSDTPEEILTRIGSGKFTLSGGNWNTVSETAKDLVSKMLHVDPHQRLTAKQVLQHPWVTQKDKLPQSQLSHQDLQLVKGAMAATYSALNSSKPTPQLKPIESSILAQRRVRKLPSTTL
For assay [16], the target named is Hck(h) activated (human) (UniProt P08631).
The target of assay [17] is Tie2(h) (human) (UniProt Q02763).
Sequence of Tie2(h) (human) (Q02763 771-1124 limits assumed): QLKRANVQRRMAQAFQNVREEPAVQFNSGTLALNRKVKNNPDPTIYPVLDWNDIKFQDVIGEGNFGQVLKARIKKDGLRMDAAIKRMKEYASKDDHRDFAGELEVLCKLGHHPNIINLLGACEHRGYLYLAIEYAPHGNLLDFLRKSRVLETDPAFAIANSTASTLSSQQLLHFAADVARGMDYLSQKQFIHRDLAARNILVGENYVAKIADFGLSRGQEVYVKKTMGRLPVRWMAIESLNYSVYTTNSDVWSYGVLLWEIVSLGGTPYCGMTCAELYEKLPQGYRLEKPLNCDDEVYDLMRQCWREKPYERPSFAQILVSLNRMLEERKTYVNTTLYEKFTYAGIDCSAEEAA
For assay [18], the target named is IRAK1(h) (human) (UniProt P51617).
Assay [19] addresses IR(h) (human) (UniProt P06213).
The target of assay [20] is T4, Axl(h) (human) (UniProt P30530).
T4 sequence (looked up): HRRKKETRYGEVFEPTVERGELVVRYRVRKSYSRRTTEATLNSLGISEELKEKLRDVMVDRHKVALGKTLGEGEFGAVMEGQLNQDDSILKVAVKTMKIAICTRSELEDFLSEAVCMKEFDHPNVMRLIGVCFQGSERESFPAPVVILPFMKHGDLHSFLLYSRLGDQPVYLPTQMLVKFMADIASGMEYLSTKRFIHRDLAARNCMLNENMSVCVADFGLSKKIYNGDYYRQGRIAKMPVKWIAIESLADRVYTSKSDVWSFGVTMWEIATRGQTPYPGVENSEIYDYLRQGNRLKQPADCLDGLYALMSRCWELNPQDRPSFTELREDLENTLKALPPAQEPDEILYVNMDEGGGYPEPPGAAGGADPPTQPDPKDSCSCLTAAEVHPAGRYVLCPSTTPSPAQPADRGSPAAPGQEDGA

Assay [21] has as its target Rsk2(h) (human) (UniProt P51812).

Sequence of Rsk2(h) (human) (P51812 whole entry): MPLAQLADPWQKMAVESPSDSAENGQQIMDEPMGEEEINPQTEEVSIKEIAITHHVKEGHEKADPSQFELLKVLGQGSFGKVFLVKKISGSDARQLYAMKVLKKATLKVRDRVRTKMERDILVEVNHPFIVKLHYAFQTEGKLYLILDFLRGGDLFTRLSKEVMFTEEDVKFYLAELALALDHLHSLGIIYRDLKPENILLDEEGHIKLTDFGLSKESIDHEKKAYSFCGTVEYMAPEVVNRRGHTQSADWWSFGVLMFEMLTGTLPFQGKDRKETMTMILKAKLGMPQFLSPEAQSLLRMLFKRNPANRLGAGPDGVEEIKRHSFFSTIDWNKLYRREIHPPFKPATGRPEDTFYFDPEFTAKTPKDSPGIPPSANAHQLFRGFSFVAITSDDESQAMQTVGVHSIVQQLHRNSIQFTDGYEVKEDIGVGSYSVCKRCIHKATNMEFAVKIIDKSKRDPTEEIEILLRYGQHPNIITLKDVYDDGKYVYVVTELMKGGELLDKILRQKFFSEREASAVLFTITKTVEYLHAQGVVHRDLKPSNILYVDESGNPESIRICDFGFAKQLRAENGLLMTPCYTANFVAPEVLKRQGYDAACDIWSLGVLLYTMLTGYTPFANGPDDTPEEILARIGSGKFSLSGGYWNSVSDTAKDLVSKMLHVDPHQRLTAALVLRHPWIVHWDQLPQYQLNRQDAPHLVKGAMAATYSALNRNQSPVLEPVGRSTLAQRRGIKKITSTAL
Sequence of SGK(h) (human) (O00141 60-431 limits assumed): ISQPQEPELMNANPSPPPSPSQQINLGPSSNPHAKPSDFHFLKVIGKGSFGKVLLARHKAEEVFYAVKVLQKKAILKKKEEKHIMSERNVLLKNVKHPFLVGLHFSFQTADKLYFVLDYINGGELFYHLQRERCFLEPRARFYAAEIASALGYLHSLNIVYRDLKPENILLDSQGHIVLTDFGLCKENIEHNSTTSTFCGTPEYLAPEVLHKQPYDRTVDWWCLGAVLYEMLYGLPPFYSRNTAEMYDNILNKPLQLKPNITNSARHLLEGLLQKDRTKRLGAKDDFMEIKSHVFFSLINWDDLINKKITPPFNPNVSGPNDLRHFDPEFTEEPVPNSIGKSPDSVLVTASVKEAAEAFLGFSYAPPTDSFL
Sequence of IR(h) (human) (P06213 1005-1310 limits assumed): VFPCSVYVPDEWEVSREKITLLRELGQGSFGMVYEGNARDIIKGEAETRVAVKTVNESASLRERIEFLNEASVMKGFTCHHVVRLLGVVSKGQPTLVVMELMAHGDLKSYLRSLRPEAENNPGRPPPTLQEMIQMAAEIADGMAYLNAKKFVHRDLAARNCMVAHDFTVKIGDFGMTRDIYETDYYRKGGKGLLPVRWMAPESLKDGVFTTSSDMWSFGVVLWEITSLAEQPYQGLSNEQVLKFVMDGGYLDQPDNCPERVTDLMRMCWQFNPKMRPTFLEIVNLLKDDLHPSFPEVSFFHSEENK

Regarding MMI-0500 (peptide), the % activity at 100 µM in [1] was 73%; in assay [2], 0%; in assay [3], 118%; in assay [4], 2%; in [5] it was 8%; in assay [6], 43%. The % activity at 100 µM is 6% in assay [7]; 5% in [8]; 21% in assay [9]; 10% in assay [10]; 2% in assay [11]; 93% in assay [12]. Further, the % activity at 100 µM in [13] is -10%; in [14] it was 27%; in assay [15], 34%; in assay [16], 67%; in assay [17], 22%; in assay [18] it was 5%. Besides, the values for the % activity at 100 µM in assay [19], in [20] and in assay [21] were 95%, 12% and 14%, respectively.

MMI-0300 (peptide): the % activity at 100 µM in assay [1] is 84%; in assay [2], 8%; in assay [3], 119%; in [4], 48%; in assay [5], 14%; in [6], 91%. In addition, the % activity at 100 µM stood at 89% in [7]; 48% in assay [8]; 23% in [9]; 8% in [10]; 74% in assay [11]; 122% in assay [12]. Further, the % activity at 100 µM in assay [13] worked out at 83%; in assay [14], 65%; in [15], 46%; in [16] it was 82%; in assay [17] it was 26%; in assay [18], 95%. In addition, the % activity at 100 µM turned out to be 96% in [19], 52% in [20] and 51% in [21].

Turning to MMI-0400 (peptide), the % activity at 100 µM worked out at 36% in assay [1]; 7% in assay [2]; 119% in assay [3]; 54% in assay [4]; 14% in [5]; 43% in [6]. In addition, the % activity at 100 µM in assay [7] was found to be 86%; in assay [8], 52%; in assay [9], 19%; in assay [10] it was 8%; in assay [11] it was 77%; in assay [12], 100%. The % activity at 100 µM in [13] was determined as 71%; in [14] it was 62%; in [15], 54%; in assay [16] it was 81%; in assay [17], 21%; in assay [18], 93%. Also, the % activity at 100 µM in [19] amounted to 85%; in assay [20], 41%; in assay [21], 38%.
